In publication PMC3836765:

Assays:
[1] = biological target: MDM2 (human (endogenous in SJSA-1)) (UniProt Q00987)
[2] = biological target: MDMX (human (endogenous in SJSA-1)) (UniProt O15151)
[3] = biological target: MDM2 (human (endogenous in SJSA-1)) (UniProt Q00987); remark: listed apart in the source
[4] = biological target: MDMX (human (endogenous in SJSA-1)) (UniProt O15151); remark: listed apart in the source
[5] = biological target: MDM2 (human (endogenous in SJSA-1)) (UniProt Q00987); remark: listed apart in the source
[6] = biological target: MDMX (human (endogenous in SJSA-1)) (UniProt O15151); remark: listed apart in the source

Chain of MDMX (human (endogenous in SJSA-1)) (O15151 whole entry): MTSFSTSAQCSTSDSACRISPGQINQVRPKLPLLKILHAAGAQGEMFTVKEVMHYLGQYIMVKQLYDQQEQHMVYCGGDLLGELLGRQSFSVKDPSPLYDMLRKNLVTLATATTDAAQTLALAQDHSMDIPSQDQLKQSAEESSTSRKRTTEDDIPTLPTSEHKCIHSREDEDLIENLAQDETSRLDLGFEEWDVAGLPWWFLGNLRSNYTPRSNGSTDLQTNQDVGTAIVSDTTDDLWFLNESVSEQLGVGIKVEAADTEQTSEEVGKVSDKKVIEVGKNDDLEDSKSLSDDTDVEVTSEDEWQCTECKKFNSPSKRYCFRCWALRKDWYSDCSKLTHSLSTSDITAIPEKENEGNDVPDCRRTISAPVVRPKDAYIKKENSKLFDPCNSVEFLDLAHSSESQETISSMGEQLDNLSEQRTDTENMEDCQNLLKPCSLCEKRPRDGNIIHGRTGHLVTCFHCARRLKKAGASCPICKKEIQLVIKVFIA
Chain of MDM2 (human (endogenous in SJSA-1)) (Q00987 whole entry): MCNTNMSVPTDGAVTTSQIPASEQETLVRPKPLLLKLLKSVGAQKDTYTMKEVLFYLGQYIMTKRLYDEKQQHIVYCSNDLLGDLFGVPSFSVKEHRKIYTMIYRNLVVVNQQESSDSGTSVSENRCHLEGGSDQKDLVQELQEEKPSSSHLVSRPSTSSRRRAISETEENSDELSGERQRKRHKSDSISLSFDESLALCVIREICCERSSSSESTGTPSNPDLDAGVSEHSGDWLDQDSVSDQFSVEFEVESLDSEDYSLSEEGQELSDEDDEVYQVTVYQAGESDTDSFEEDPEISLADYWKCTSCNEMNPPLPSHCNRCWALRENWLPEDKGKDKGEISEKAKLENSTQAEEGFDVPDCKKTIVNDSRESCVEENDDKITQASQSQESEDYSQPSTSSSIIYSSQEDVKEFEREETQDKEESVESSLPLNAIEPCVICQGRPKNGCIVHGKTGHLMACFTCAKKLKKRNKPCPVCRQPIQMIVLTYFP

| Substance | cytotoxicity in SJSA-1 cells, CyQuant Assay, 24 h, percent cell death relative to 10 uM rHSA-treated cells (concentrations as indicated in Figure 4A) [1] [% cell death] | cytotoxicity in SJSA-1 cells, CyQuant Assay, 24 h, percent cell death relative to 10 uM rHSA-treated cells (concentrations as indicated in Figure 4A) [2] [% cell death] | caspase activation in SJSA-1 cells, Homogeneous Caspase Assay, 24 h, fold change [3] [fold] | caspase activation in SJSA-1 cells, Homogeneous Caspase Assay, 24 h, fold change [4] [fold] | p53 protein level in SJSA-1 cells after 24 h with 10 uM protein, Western blot densitometry, fold increase [5] [fold] | p53 protein level in SJSA-1 cells after 24 h with 10 uM protein, Western blot densitometry, fold increase [6] [fold] |
| --- | --- | --- | --- | --- | --- | --- |
| recombinant human serum albumin fused at its C-terminus to the MDM2/MDMX-binding peptide N8A-PMI (rHSA-PMI), biotinylated (from UniProt P02768 25-608) | 84 | 84 | 7 | 7 | 2.9 | 2.9 |
| recombinant human serum albumin fused at its C-terminus to the wild type p53-derived peptide P53i (rHSA-P53i), biotinylated (from UniProt P02768 25-608) | 60 | 60 | < 2 | < 2 | 1.5 | 1.5 |
